B1: LINE1-full (parent)
chain: UACGUAGGUGGUUUUCCCCUGAUAGUGCUAAGGGGGCCUGGAAGUUUGGACUGGGCAGAGCUCAACACAGCGUGGCAAAGUGGCUGUGGCUAGACUGCCUCUCUGGAUUCCUCGUCACUCAGCAGGGCAUCUCUGAGAGAAAUGCC

Variants of: B1
Assay: self-cleavage, relative activity (ratio to wild type); higher = more cleavage; in vitro, sequencing; the parent is a self-cleaving ribozyme

Compared with UACGUAGGUGGUUUUCCCCUGAUAGUGCUAAGGGGGCCUAGAAGUUUGGACUGGGCAGAGCUCAACACAGCGUUGCAAAGUGGCUGUGGCUAGACUGCCUCUCUGGAUUCCUCGUCACUCAGCAGGGCAUCUCUGAGAGAAAUGCC [G40A G74U], UACGUAGGUGGUUUUCCCCUGAUAGUGCUAAGGGGGCCUGGAAGUUUGGACUGGGCAGAGCUCAACACAGCGUGGCAAAGUGGCUGUAGCUAGACCGCCUCUCUGGAUUCCUCGUCACUCAGCAGGGCAUCUCUGAGAGAAAUGCC [G88A U96C] is lower in self-cleavage: 1.45 for the first, 0.02 for the second.

Going from UACGUAGGUGGUCUUCCCCUGAUAGUGCUAAAGGGGCCUGGAAGUUUGGACUGGGCAGAGCUCAACACAGCGUGGCAAAGUGGCUGUGGCUAGACUGCCUCUCUGGAUUCCUCGUCACUCAGCAGGGCAUCUCUGAGAGAAAUGCC [U13C G32A] to UACGUAGGUGGUUUUCCCCUGAUAGUGCUAAGGGGGCCUGGAAGUUUGGACUGGGCAGAGCUCAACACAGCGUGGCAAAGUGGCUGUGGCUAGACUGCCUCUCUGGAUUCCUCGUCACUCUGCAGGGCAUCUCUGAGAGAAAUGCU [A121U C146U], the self-cleavage rises from 0.99 to 1.73.

First: UACGUAGGUGGUUUUCCCCUGAUAGUGCUAAGGGGGCCUGGAAGUUUGGACUGGGCAGAGCUCAACACAGCGUGGCAAAGUGGCUGUGGCUAGACUGCCUCUCUGGAUUCCUCGUCACUCAGCAGGGCCUCUCUGAGAGAAAUGCC [A129C]
Second: UACGUAGGUGGUUUUCCACUGAUAGUGCUAAGGGGGCCUGGAAGUUUGGACUGGGCAUAGCUCAACACAGCGUGGCAAAGUGGCUGUGGCUAGACUGCCUCUCUGGAUUCCUCGUCACUCAGCAGGGCAUCUCUGAGAGAAAUGCC [C18A G58U]
The self-cleavage of the first is higher: 1.67 for the first, 0.07 for the second.

First: UACGUAGGUGGUUUUUCCCAGAUAGUGCUAAGGGGGCCUGGAAGUUUGGACUGGGCAGAGCUCAACACAGCGUGGCAAAGUGGCUGUGGCUAGACUGCCUCUCUGGAUUCCUCGUCACUCAGCAGGGCAUCUCUGAGAGAAAUGCC [C16U U20A]
Second: UACGUAGGAGGUUUUCCCCUGAUAGUGCUAAGGGGGCCUGGAAGUUUGGACUGGGCAGAGCUCAACACAGCGUGGCAAAGUGGCUGCGGCUAGACUGCCUCUCUGGAUUCCUCGUCACUCAGCAGGGCAUCUCUGAGAGAAAUGCC [U9A U87C]
The self-cleavage of the first is higher: 1.02 for the first, 0.19 for the second.

First: UACGUAGGUGGUUCUCCCCUGAUAGUGCUAAGGGGGCCUGGAAGUUUGGACUGGGCAGAGCUCAACACAGCGUGGCAAAGUGGCUGUGGCUAGACUGCCUCUCUGGAUUCCUCGUCACUCAGCAGGGCAUCUCUGAGAGAAAAGCC [U14C U143A]
Second: UACGUAGGUGGUUUUCCCCUGAUAGUGCUAAGGGGGCCUGGAAGGUUGGACUGGGCAGAGCUCAACACAGCGUGGCAAAGUGGCUGUGGCUAGACAGCCUCUCUGGAUUCCUCGUCACUCAGCAGGGCAUCUCUGAGAGAAAUGCC [U45G U96A]
The self-cleavage of the first is higher: 0.99 for the first, 0.03 for the second.

Compared with UACGUAGGUGGUUUUCCCCUGAUAGUGCUAAGGGGGCCUGGAAGUUUGGACUGGGCAGAGCCCAACACAGCGUGGCAAAGUGGCUGUGGCUAGACUGCCUCUCUGGAUUCCUCGUCACUCAGCAGGGCAUCUCUGAGAGAAACGCC [U62C U143C], UACGUAGGUGGUUUUCCCCUGAUAGUGCUAAGGGGGCCUGGAAGUUUGGACUGGGCAGAGCUCAACACAGCGUGGCAAAGUGGCUGUGCCUAGACUGCCUCUCUGGAUUCCUCGUCACUCAGCAGGGCAUCUCUGAGGGAAAUGCC [G89C A138G] is higher in self-cleavage: 0.06 for the first, 0.07 for the second.

First: UACGUAGGUGGUUUUCCCCUGAUAGUGCUAAGGGGGCCUGGAAGUUUGGACUGGGCAGAGCUCAACACAGCGUGGCAAAGUGGCAGUGGCUAAACUGCCUCUCUGGAUUCCUCGUCACUCAGCAGGGCAUCUCUGAGAGAAAUGCC [U85A G93A]
Second: AACGUAGGUGGUUUUCCCCUGAUAGUGCUAAGGGGGCCUGGAAGUUUGGACUGGGCAGAGCUCAACACAGCGUGGCAAAGUGGCUGUGGCCAGACUGCCUCUCUGGAUUCCUCGUCACUCAGCAGGGCAUCUCUGAGAGAAAUGCC [U1A U91C]
The self-cleavage of the first is lower: 0.05 for the first, 0.15 for the second.

First: UACGUAGGUGGUUUUCCCCUGAUAGUGCUAAGGGGGCCUGGAAGUUUGGACUGGGCAGAGCUCAACACAGCGUGGCAAAGUGGCUGUGGCUAGACUGCCACUCUGGAUUCCUCGACACUCAGCAGGGCAUCUCUGAGAGAAAUGCC [U100A U115A]
Second: UACGUAGGUGGUUUUCCCCUGAUAGUGCUAAGGGGGCCUGGAAGUUUGGACUGGGCAGAGCUCAACACAGCGUGGCGAAGUGGCUGUGGCUAGACUGCCUCUCUGGAUUCCUCGUCACUCAGCAGGGCGUCUCUGAGAGAAAUGCC [A77G A129G]
The self-cleavage of the first is lower: 0.72 for the first, 2.21 for the second.

First: UACGUAGGUGGUUUUCCCCUGAUAGUGCUAAGGGGGCCUGGAAGUUUGGACCGGGCAGAGCUCAACACAGCGUGGCAAAGUGGCUGUGGCUAGACUGCCUCUCUGGAUUCCUCGUCACUCAGCAGGGCAUCACUGAGAGAAAUGCC [U52C U132A]
Second: UACGUAGGUGGUUUUCCCCUGAUAGUGCAAAGGGGGCCUGGAAGUCUGGACUGGGCAGAGCUCAACACAGCGUGGCAAAGUGGCUGUGGCUAGACUGCCUCUCUGGAUUCCUCGUCACUCAGCAGGGCAUCUCUGAGAGAAAUGCC [U29A U46C]
The self-cleavage of the first is higher: 1.88 for the first, 1.21 for the second.

Going from UACGUAGGUGGUUUUCCCCUGAUAGUGCUAAGGGGGCCUGGAAGUUUGGACUGGGCAGAGCUCAACCCAGCGUGGCAAAGUGGCUGUGGCUAGACUGCCUCUCUGGAUUCCUCGUCAGUCAGCAGGGCAUCUCUGAGAGAAAUGCC [A67C C118G] to UACGUAGGUGGUUUUCCCCUGAUAGUGCUAAGGGGGCCUGGAAGUUUGGACUGGGCAGAGCUCAACACAGCGUGGCAAAGUGGCUAUGGCUAGACUGCCUCUCUGGAUUCCACGUCACUCAGCAGGGCAUCUCUGAGAGAAAUGCC [G86A U112A], the self-cleavage rises from 0.05 to 0.08.

First: UACGAAGGUGGUUUUCCCCUGAUAGUGCUAAGGGGGCCUGGAAGUUUGGACUAGGCAGAGCUCAACACAGCGUGGCAAAGUGGCUGUGGCUAGACUGCCUCUCUGGAUUCCUCGUCACUCAGCAGGGCAUCUCUGAGAGAAAUGCC [U5A G53A]
Second: UACGUAGGUGGUUUUCCCCUGAUAGUGCUAAGGGGGCCUGGAAGUUUGGACUGGGCAGAGCUCAGCACAGCGUGGCAAAGUGGCUGUGGCUAGACUGCCUCUCUGGAUUCCUCGUCACUCAGCAGGGCAUCUCUGAGAAAAAUGCC [A65G G139A]
The self-cleavage of the first is higher: 0.79 for the first, 0.06 for the second.

Compared with UACGUAUGUGGUUUUCCCCUGAUAGUGCUAAGGGGGCCUGGAAGUUUGGACUGGGCAGAGCUCAACACAGCGUGGCAAAGUGGCUGUGGCUAGACUGCCUCUCCGGAUUCCUCGUCACUCAGCAGGGCAUCUCUGAGAGAAAUGCC [G7U U104C], UACGUAGGUGGUUUUCCCCUGAAAGUGCUAAGGGGGCCUGGAAGUUUGGACUGGGCAGAGCUCAACACAGCGUGGCAAAGUGGCUGUGGCUAGACUGCCUCUCCGGAUUCCUCGUCACUCAGCAGGGCAUCUCUGAGAGAAAUGCC [U23A U104C] is lower in self-cleavage: 0.9 for the first, 0.84 for the second.

Going from UACGUAGGUGGUUUUCCCCUGAUAGUGCUAAGGGGGCCUGGAAGUUUGGACUGAGCAGAGCUCAACACAGCGUGGCAAAGUGGCUGUGGCUAGACUGCCUCUCUGGAUUCCUCGUCCCUCAGCAGGGCAUCUCUGAGAGAAAUGCC [G54A A117C] to UACGUAGGUGGUUUUCCCCUGAUAGUGCUAAGGGGGCCUGGAAGUUUGGACUGGGCAGAGCUCAACACAGGGUGGCAAAGUGGCUGUGGCUAGACUGCCUCUCUGGAUUCCUCGUCACUCAGCAGGGCAUCUCUGAGAGUAAUGCC [C71G A140U], the self-cleavage falls from 1.1 to 0.53.

Going from UACGUAGGUGGUUUUCCCCUGAUAGUGCUAGGGGGACCUGGAAGUUUGGACUGGGCAGAGCUCAACACAGCGUGGCAAAGUGGCUGUGGCUAGACUGCCUCUCUGGAUUCCUCGUCACUCAGCAGGGCAUCUCUGAGAGAAAUGCC [A31G G36A] to UACGUAGGUGGUUUUCCCCUGAUAGUGCUAAGGGGGCCUGGAAGUUUAGACUGGGCAGAGCUCAACACAGCGUGGCAGAGUGGCUGUGGCUAGACUGCCUCUCUGGAUUCCUCGUCACUCAGCAGGGCAUCUCUGAGAGAAAUGCC [G48A A78G], the self-cleavage rises from 0.99 to 1.21.

Going from UACGUAGGUGGUUUUCCCCUGAUAGUGCUAAGGGGGCCUGGAAGUUUGGAAUAGGCAGAGCUCAACACAGCGUGGCAAAGUGGCUGUGGCUAGACUGCCUCUCUGGAUUCCUCGUCACUCAGCAGGGCAUCUCUGAGAGAAAUGCC [C51A G53A] to UACGUAGGUGGUUAUCCCCUGAUAGUGCUAAGGGGGCCUGGAAGUUUGGACUGGGCAGAGCUCUACACAGCGUGGCAAAGUGGCUGUGGCUAGACUGCCUCUCUGGAUUCCUCGUCACUCAGCAGGGCAUCUCUGAGAGAAAUGCC [U14A A64U], the self-cleavage falls from 1.92 to 0.48.

Compared with UACGUAGGAGGUUUUCCCCUGAUAGUGCUAAGGGGGCCUGGAAGGUUGGACUGGGCAGAGCUCAACACAGCGUGGCAAAGUGGCUGUGGCUAGACUGCCUCUCUGGAUUCCUCGUCACUCAGCAGGGCAUCUCUGAGAGAAAUGCC [U9A U45G], UACGUAGGUGGUUUUCCCCUGAUAGUGCUAAGGGGGCCUGGAAGUUUGGACUGGGCAGAGCUCAACACAGCGUGGCAAAGUGGCUUUGGCUAGACUGCCUCUCUGGAUUCCUCGUCACUCAGCAGGGCUUCUCUGAGAGAAAUGCC [G86U A129U] is lower in self-cleavage: 1.05 for the first, 0.09 for the second.

First: UACGUAGGUGGUUUUCCCCUGAUAGUGCUAAGGGGGCCAGGAAGUUUGGACUGGGCAGAGCUCAACACAGCGUGGCAAAGUGGCUGUGGCUAGACUGCCUCUCUGGUUUCCUCGUCACUCAGCAGGGCAUCUCUGAGAGAAAUGCC [U39A A107U]
Second: UACGUAGGUGGAUUUCCCCUGAUAGUGCUAAGGGGGCCUGGAAGUUUGGACUGGGCAGAGCUCAACACAGCGUGGCAAAGUGGCUGUGGCUAGUCUGCCUCUCUGGAUUCCUCGUCACUCAGCAGGGCAUCUCUGAGAGAAAUGCC [U12A A94U]
The self-cleavage of the first is higher: 1.43 for the first, 0.51 for the second.

Compared with UACGUAGGUGGUUUUCCCCUGAUAGUGCUAAGGGGGCCUGGAAGUUUGGACUGGGCAGAGCUCAACACAGCGUGGCAAAGUAGCUGUGGCUAGACUGCCUCUCUGGAUUCCUCGUCACUCAGCAGGGCAUCUCUGAGAGAAAUGCC [G82A], UACGUAGGUGGUUUUCCCCUGAUAGUGCUAAGGGGGCCUGGAAGUUUGGACUGGGCAGAGCUCAACACAGCGUGGCAAAGUGGCUGUGGCUAGACUGCCUCUCUGGAUUCCUCGUCACUCAGCCGGGCAUCUCUGGGAGAAAUGCC [A124C A136G] is lower in self-cleavage: 1.75 for the first, 1.15 for the second.

First: UACGUAGGUGGUUUUCCCCUGAUAGUGCUAAGGGGGCCUGGAAGUUUGGACUGGGCAGAGCUCAACACAGCGCGGCAAAGUGGCUGUGGCUAGACUGCCUCUCUGGAUUCCUCGUCGCUCAGCAGGGCAUCUCUGAGAGAAAUGCC [U73C A117G]
Second: UACGUAGGUCGUUUUCCCCUGAUAGUGCUAAGGGGGCCUGGAAGUUUGGACUGGACAGAGCUCAACACAGCGUGGCAAAGUGGCUGUGGCUAGACUGCCUCUCUGGAUUCCUCGUCACUCAGCAGGGCAUCUCUGAGAGAAAUGCC [G10C G55A]
The self-cleavage of the first is higher: 1.23 for the first, 0.6 for the second.

UACGUAGGUGGUUUUCCCCUGUUAGUGCUAAGGGGGCCUGGAAGUAUGGACUGGGCAGAGCUCAACACAGCGUGGCAAAGUGGCUGUGGCUAGACUGCCUCUCUGGAUUCCUCGUCACUCAGCAGGGCAUCUCUGAGAGAAAUGCC [A22U U46A] showed a self-cleavage of 1.2.

— the RNAGym collection of RNA variant scans (doi:10.7554/elife.90254)
